Measured values: patent publication EP2397495A1 (SANOFI, dated 2011)
Several values for one entry are separate records, joined by “and”; a condition that tells them apart may be missing. Identical values can stand only once.

T1: human GPVI on the platelet surface (human, UniProt Q9HCN6 21-339)
T1 sequence (looked up): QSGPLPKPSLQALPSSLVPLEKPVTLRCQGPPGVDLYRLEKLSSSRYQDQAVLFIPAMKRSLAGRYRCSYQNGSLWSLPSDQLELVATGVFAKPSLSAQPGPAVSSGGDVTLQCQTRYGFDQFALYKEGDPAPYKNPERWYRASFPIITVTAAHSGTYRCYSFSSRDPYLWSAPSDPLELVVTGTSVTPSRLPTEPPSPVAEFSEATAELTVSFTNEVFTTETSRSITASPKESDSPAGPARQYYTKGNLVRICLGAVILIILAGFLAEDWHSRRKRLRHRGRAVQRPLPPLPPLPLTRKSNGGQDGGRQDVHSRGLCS

B1: humanized anti-GPVI Fab VL1 with VH2 (Fab, V domains shown)
VH: QVQLQESGPGLVAPSQSLSITCTVSGFSLTGYGVNWVRQPPSRGLEWLGMIWGDGSTDYQSTLKSRLSISKDNSKSQVFLKMNSLTTDDTARYYCARDLPMDYWGQGTSVTVSS
VL: DIQMTQSPSSLSASVGGRVTITCKASQDINKYIAWYQHKPGKGPSLLIHYTSTLQPGVPSRFSGSGSGRDYSFSISNLQPEDIATYYCLQYANLLTFGGGTKLEIKR
B2: humanized anti-GPVI Fab VL1 with VH5 (Fab, V domains shown)
VH: QVQLQESGPGLVAPSQSLSITCTVSGFSLTGYGVNWVRQPPSRGLEWLGMIWGDGSTDYQSTLKSRLSISKDNSKSQVFLKMNSLTTDDTARYYCARDLPMDEWGQGTSVTVSS
VL: DIQMTQSPSSLSASVGGRVTITCKASQDINKYIAWYQHKPGKGPSLLIHYTSTLQPGVPSRFSGSGSGRDYSFSISNLQPEDIATYYCLQYANLLTFGGGTKLEIKR
B3: humanized anti-GPVI Fab VL1 with VH3 (Fab, V domains shown)
VH: EVQLLESGPGLVAPSGSLSITCTVSGFSLTGYGVNWVRQPPGKGLEWLGMIWGDGSTDYQSTLKSRLSISKDNSKSQVFLKMNSLRTDDTARYYCARDLPMDYWGLGTSVTVSS
VL: DIQMTQSPSSLSASVGGRVTITCKASQDINKYIAWYQHKPGKGPSLLIHYTSTLQPGVPSRFSGSGSGRDYSFSISNLQPEDIATYYCLQYANLLTFGGGTKLEIKR
B4: humanized anti-GPVI Fab VL3 with VH4 (Fab, V domains shown)
VH: QVQLQESGPGLVAPSQSLSITCTVSGFSLTYYGVNWVRQPPSRGLEWLGMIWGDGSTDYQSTLKSRLSISKDNSKSQVFLKMNSLTTDDTARYYCARDLPMDYWGQGTSVTVSS
VL: DIQMTQSPSSLSASVGGRVTITCKASQDINKYIAWYQHKPGKGPSLLIHYTSTLQPGVPSRFSGSGSGRDYSFSISNLQPEDIATYYCLQYALLLTFGGGTKLEIKR
B5: humanized anti-GPVI Fab VL3 with VH2 (Fab, V domains shown)
VH: QVQLQESGPGLVAPSQSLSITCTVSGFSLTGYGVNWVRQPPSRGLEWLGMIWGDGSTDYQSTLKSRLSISKDNSKSQVFLKMNSLTTDDTARYYCARDLPMDYWGQGTSVTVSS
VL: DIQMTQSPSSLSASVGGRVTITCKASQDINKYIAWYQHKPGKGPSLLIHYTSTLQPGVPSRFSGSGSGRDYSFSISNLQPEDIATYYCLQYALLLTFGGGTKLEIKR
B6: humanized anti-GPVI Fab VL1 with VH4 (Fab, V domains shown)
VH: QVQLQESGPGLVAPSQSLSITCTVSGFSLTYYGVNWVRQPPSRGLEWLGMIWGDGSTDYQSTLKSRLSISKDNSKSQVFLKMNSLTTDDTARYYCARDLPMDYWGQGTSVTVSS
VL: DIQMTQSPSSLSASVGGRVTITCKASQDINKYIAWYQHKPGKGPSLLIHYTSTLQPGVPSRFSGSGSGRDYSFSISNLQPEDIATYYCLQYANLLTFGGGTKLEIKR
B7: humanized anti-GPVI Fab VL1 with VH1 (Fab, V domains shown)
VH: QVQLQESGPGLVAPSQSLSITCTVSGFSLTGYGVNWVRQPPSRGLEWLGMIWGDGSTDYQSTLKSRLSISKDTSKSQVFLKMNSLTTDDTARYYCARDLPMDYWGQGTSVTVSS
VL: DIQMTQSPSSLSASVGGRVTITCKASQDINKYIAWYQHKPGKGPSLLIHYTSTLQPGVPSRFSGSGSGRDYSFSISNLQPEDIATYYCLQYANLLTFGGGTKLEIKR
B8: humanized anti-GPVI Fab VL2 with VH2 (Fab, V domains shown)
VH: QVQLQESGPGLVAPSQSLSITCTVSGFSLTGYGVNWVRQPPSRGLEWLGMIWGDGSTDYQSTLKSRLSISKDNSKSQVFLKMNSLTTDDTARYYCARDLPMDYWGQGTSVTVSS
VL: DIQMTQSPSSLSASVGGRVTITCKASQDINKYIAWYQHKPGKGPSLLIHYTSTLQPGVPSRFSGSGSGRDYSFSISNLQPEDIATYYCLQYAHLLTFGGGTKLEIKR

Biological target: T1, human GPVI on the platelet surface
Assay: cell-based or functional assay

Binder | IC50, inhibition of collagen induced platelet aggregation (human platelet rich plasma)
B1 | 2.3 µg/mL and 2 µg/mL and 1.1 µg/mL
B2 | 1.9 µg/mL and 2.3 µg/mL and 1.2 µg/mL
B3 | 1.5 µg/mL and 1.7 µg/mL
B4 | 1 µg/mL and 2.3 µg/mL and 2 µg/mL
B5 | 1.9 µg/mL and 0.9 µg/mL and 2.1 µg/mL
B6 | 1.6 µg/mL and 1.8 µg/mL and 1.2 µg/mL
B7 | 1.5 µg/mL and 2.3 µg/mL
B8 | 1.4 µg/mL and 2.4 µg/mL and 2.3 µg/mL
